This is an account of results in paper PMC5847621 (2018).

This assay deals with T1, VSV Gth, soluble form of the ectodomain of VSV glycoprotein G (residues 1-422) (Vesicular stomatitis virus (Mudd-Summer …, UniProt P0C2X0 17-438)).
T1 chain: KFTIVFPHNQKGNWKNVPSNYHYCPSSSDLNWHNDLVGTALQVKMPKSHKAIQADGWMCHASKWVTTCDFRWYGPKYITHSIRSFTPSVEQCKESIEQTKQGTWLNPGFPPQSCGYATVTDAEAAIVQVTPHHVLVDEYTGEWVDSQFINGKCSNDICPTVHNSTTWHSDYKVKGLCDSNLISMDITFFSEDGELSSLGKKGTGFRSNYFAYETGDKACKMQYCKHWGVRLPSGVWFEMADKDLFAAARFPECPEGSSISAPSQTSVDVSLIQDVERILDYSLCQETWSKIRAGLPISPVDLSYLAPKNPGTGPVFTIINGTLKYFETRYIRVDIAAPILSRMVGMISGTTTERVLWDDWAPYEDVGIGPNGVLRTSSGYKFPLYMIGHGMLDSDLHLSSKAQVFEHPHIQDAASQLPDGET
The assay is described as follows: ITC. A general note: Isothermal titration calorimetry measures the heat released or taken up as one component is titrated into another.

B1: LDL-R CR3 domain, isolated (GST cleaved off) (domain or fragment)
chain: not shown
B1: binding was put at a Kd of 3.75 µM.

What is called Kd is a measure of binding affinity in units of concentration. High values mean weaker binding, low ones tighter binding.
